Results as given in patent US20040166544A1 (published 2004).
Values joined by “and” are separate entries in the source; they are usually repeats but may differ in a detail not shown here. Equal entries are not always repeated.

B1: c-Met IgG antibody 12119 (antibody, V domains shown)
VH: QLQLQESGPGLVKPSGTLSLTCAVSGGSISTSDWWSWVRRPPGKGLEWIGEIYHSGSTNYHPSLKSRVTISLDKSKNQFSLKLSSVTAADTAVYYCAREGGHSGSYPLDYWGRGTLVTVSS
VL: NFMLTQPHSVSESPGKTVTISCARSSGSIASNYVQWYQQRPGSSPTTLIYEDRQRPSGVPDRFSGSIDSSSNSASLTISGLKTEDEADYYCQSYDSSDHVVFGGGTKLTVLG
notes: IgG of scFv PGIA-5-A1; also called 12119 IgG; IgG of scFv PGIA-05-A1 (PGIA-5-A1)
B2: c-Met 11994 Fab (Fab, V domains shown)
VH: QVQLQESGPGLVKPSGTLSLTCAVSGGSISTSDWWSWVRRPPGKGLEWIGEIYHSGSTNYHPSLKSRVTISLDKSKNQFSLKLSSVTAADTAVYYCAREGGHSGSYPLDYWGKGTLVTVSS
VL: NFMLTQPHSVSESPGKTVTISCTRSSGSIASNYVQWYQQRPGSSPTTVIYEDNQRPSGVPDRFSGSIDSSSNSASLTISGLKTEDEADYYCQSYDSSNQGVVFGGGTKLTVLG
notes: VH and VL limits counted as for the IgG; also called 11994-50; Fab fragment derived from c-Met antibody 11994
B3: c-Met IgG antibody 12075 (antibody, V domains shown)
VH: QVQLVQSGPEVKKPGASVEVSCKASGYTFTGDYMHWVRQAPGQGPEWMGWINPQTGVTKYAQKFQGRVTMARDTSINTAYMELRGLRSDDTAVYYCVREDHNYDLWSAYNGLDVWGQGTLVTVSS
VL: QSVLTQPPSVSAAPGQKVTISCSGSSSNIGNNHVSWYQQLAGTAPKLLIFDNDKRPSGIPDRFSGSKSGTSATLGITGLQTGDEADYYCGTWDKSPTDIYVFGSGTKLTVLG
notes: IgG of scFv PGIA-3-A11; also called 12075 IgG; IgG of scFv PGIA-03-A11 (PGIA-3-A11)
B4: c-Met IgG antibody 11978 (antibody, V domains shown)
VH: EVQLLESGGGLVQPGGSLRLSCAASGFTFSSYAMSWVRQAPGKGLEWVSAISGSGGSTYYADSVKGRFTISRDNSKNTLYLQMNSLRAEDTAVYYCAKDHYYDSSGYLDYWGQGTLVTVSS
VL: NFMLTQPHSVSESPGKTVTISCTRSSGSIAFDYVQWYQQRPGSAPTTVIYEDNQRPSGVPDRFSASIDSSSNSASLTISALKTEDEADYYCQSYDNSNSWVFGGGTKLTVLG
notes: IgG of scFv PGIA-1-A8; also called IgG of scFv PGIA-01-A8 (PGIA-1-A8)
B5: NK4-Elastase (ligand, UniProt P14210 32-478, looked up)
chain: QRKRRNTIHEFKKSAKTTLIKIDPALKIKTKKVNTADQCANRCTRNKGLPFTCKAFVFDKARKQCLWFPFNSMSSGVKKEFGHEFDLYENKDYIRNCIIGKGRSYKGTVSITKSGIKCQPWSSMIPHEHSFLPSSYRGKDLQENYCRNPRGEEGGPWCFTSNPEVRYEVCDIPQCSEVECMTCNGESYRGLMDHTESGKICQRWDHQTPHRHKFLPERYPDKGFDDNYCRNPDGQPRPWCYTLDPHTRWEYCAIKTCADNTMNDTDVPLETTECIQGQGEGYRGTVNTIWNGIPCQRWDSQYPHEHDMTPENFKCKDLRENYCRNPDGSESPWCFTTDPNIRVGYCSQIPNCDMSHGQDCYRGNGKNYMGNLSQTRSGLTCSMWDKNMEDLHRHIFWEPDASKLNENYCRNPDDDAHGPWCYTGNPLIPWDYCPISRCEGDTTPTIV
notes: domain: kringle to kringle 4 fragment
B6: NK4-6His (recombinant NK4, CHO DG44/pPHA27965) (ligand)
chain: QRKRRNTIHEFKKSAKTTLIKIDPALKIKTKKVNTADQCANRCTRNKGLPFTCKAFVFDKARKQCLWFPFNSMSSGVKKEFGHEFDLYENKDYIRNCIIGKGRSYKGTVSITKSGIKCQPWSSMIPHEHSFLPSSYRGKDLQENYCRNPRGEEGGPWCFTSNPEVRYEVCDIPQCSEVECMTCNGESYRGLMDHTESGKICQRWDHQTPHRHKFLPERYPDKGFDDNYCRNPDGQPRPWCYTLDPHTRWEYCAIKTCADNTMNDTDVPLETTECIQGQGEGYRGTVNTIWNGIPCQRWDSQYPHEHDMTPENFKCKDLRENYCRNPDGSESPWCFTTDPNIRVGYCSQIPNCDMSHGQDCYRGNGKNYMGNLSQTRSGLTCSMWDKNMEDLHRHIFWEPDASKLNENYCRNPDDDAHGPWCYTGNPLIPWDYCPISRCEGDTTPTIVHHHHHH
notes: domain: NK4; also called NK4-His

Assays:
[1] = biological target: c-Met (endogenous, on human cell lines 184B5, HCT-116, DU-145 and NCI H441) (human, UniProt P08581 25-1390); assay: cell-based or functional assay
c-Met (endogenous, on human cell lines 184B5, HCT-116, DU-145 and NCI H441), sequence (P08581 25-1390): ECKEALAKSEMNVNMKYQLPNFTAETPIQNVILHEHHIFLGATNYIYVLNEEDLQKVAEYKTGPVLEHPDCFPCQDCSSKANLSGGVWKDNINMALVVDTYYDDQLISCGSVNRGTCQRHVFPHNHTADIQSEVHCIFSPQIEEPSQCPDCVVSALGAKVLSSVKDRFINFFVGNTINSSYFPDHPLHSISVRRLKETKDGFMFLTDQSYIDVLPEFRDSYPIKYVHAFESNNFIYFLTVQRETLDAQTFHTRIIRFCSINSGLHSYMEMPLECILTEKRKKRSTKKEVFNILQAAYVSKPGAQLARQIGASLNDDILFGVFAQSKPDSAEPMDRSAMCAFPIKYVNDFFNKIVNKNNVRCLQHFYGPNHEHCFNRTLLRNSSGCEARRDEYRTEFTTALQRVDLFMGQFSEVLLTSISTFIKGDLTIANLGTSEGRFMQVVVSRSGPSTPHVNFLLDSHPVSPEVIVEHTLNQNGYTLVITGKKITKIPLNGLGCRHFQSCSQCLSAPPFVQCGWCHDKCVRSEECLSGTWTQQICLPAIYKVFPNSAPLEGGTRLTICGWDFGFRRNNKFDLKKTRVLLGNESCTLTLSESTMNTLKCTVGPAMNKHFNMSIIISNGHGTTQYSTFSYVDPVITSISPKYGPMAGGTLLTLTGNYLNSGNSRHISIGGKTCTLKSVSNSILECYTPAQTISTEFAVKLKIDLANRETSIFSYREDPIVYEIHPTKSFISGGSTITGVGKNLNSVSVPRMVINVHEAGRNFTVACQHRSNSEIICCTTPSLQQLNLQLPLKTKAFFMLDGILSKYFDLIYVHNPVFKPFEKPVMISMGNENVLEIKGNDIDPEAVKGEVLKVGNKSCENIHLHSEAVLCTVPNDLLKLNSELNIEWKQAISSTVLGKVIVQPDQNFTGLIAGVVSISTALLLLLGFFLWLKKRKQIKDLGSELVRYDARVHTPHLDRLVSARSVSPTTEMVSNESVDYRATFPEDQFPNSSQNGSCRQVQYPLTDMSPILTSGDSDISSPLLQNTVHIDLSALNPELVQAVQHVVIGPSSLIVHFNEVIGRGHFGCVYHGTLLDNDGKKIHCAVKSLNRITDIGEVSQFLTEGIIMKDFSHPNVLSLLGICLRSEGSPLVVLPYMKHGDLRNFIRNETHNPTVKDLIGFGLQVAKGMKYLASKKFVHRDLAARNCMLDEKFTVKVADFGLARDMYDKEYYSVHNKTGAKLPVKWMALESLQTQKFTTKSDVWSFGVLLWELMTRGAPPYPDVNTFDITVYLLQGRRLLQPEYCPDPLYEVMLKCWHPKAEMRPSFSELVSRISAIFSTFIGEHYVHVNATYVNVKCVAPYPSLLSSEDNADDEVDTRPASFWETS

[2] = biological target: T1, c-Met/Fc Chimera (R&D Systems, catalog # 358-MT-100) (human, UniProt P08581 25-932); assay: europium (DELFIA) ligand competition ELISA: biotinylated HGF binding to plate-coated c-Met/Fc Chimera, antibody titrated
T1 construct: extracellular domain; Bought reagent; also called human c-Met-Fc fusion protein; recombinant c-Met protein; Fc part of the bought chimera not given
T1 sequence (P08581 25-932, stated change not applied): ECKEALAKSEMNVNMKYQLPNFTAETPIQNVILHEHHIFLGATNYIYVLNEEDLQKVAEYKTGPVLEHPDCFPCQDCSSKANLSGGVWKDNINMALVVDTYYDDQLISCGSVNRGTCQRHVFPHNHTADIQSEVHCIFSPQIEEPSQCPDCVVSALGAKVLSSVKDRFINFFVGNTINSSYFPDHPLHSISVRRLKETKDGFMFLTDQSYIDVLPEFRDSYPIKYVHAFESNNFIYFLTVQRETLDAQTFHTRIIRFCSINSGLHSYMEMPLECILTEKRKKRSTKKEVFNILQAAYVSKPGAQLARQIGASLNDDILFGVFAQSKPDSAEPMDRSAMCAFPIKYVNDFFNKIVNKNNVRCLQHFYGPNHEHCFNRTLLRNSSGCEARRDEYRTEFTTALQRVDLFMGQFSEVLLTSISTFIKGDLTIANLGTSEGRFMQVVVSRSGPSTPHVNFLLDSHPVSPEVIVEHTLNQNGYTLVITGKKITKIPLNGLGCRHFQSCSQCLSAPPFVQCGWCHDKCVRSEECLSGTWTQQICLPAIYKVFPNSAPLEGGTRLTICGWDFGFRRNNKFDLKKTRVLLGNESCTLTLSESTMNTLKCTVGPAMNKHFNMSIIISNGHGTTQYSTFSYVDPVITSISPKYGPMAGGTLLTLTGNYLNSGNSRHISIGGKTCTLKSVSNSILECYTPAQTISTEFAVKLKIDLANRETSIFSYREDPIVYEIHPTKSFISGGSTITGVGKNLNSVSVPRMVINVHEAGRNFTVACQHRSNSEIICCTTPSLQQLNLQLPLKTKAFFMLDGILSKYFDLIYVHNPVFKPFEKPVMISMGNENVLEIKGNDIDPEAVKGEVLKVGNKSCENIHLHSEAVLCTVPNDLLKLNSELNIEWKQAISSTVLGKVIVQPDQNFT
Method: (§1) 96-well Fluoronunc plates were coated with 50 ul of 0.5 ug/ml c-Met/Fc Chimera (R&D Systems, Minneapolis Minn., catalog # 358-MT-100) in phosphate buffered saline (PBS) and the plates were incubated overnight at room temperature. Wells were washed three times with washing buffer (PBS+0.1% Tween 20), blotting the plates on paper towels between each wash. Nonspecific binding in the wells was blocked by the addition of 250 ul of blocking buffer (3.0% milk (Carnation) in PBS) to each well and incubated at room temperature for two hours.
(§2) The c-Met antibodies were diluted in reagent buffer (PBS, 0.5% BSA, 0.05% Tween-20) and titrations were performed in 96 well polypropylene plates. Biotinylated HGF (0.4 ug/ml) (R&D Systems, biotinylated with Pierce #21335 as per manufacturer's instructions) was added to each well. 50 ul of the dilutions were transferred into the Fluoronunc plates containing human c-Met-Fc fusion protein (R&D Systems, #) and the plates were incubated for two hours at room temperature. The plates were washed three times with wash buffer and blotted onto paper towels. 50 ul of europium-labeled Streptavidin (Wallac Perkin Elmer) diluted 1:1000 in Delfia assay buffer (Wallac Perkin Elmer) was added per well and the plates were incubated for one hour at room temperature. The plates were washed seven times with Delfia wash buffer (Tris buffered saline (TBS) supplemented with 0.1% Tween-20) and blotted onto paper towels. 100 ul Delfia enhancer solution (Wallac Perkin Elmer) was added to each well and the plates incubated for 5 minutes on a plate shaker at room temperature. Plates were read on a fluorescence plate reader and analyzed using GraphPad Prism software (GraphPad Software, San Diego, Calif.).

[3] = biological target: T2, biotinylated c-Met-Fc (R&D Systems, #358-MT-100/CF, 5.1 biotin per c-Met molecule) (human, UniProt P08581 25-932, biotinylated, 5.1 biotin per c-Met molecule (Pierce #21335)); assay: SPR (BIAcore), biotinylated c-Met-Fc captured on streptavidin chip, IgG as analyte, bivalent model
T2 construct: extracellular domain; Captured on a streptavidin (SA) chip for the BIAcore study of the IgGs; Fc part of the bought chimera not given
T2 sequence (P08581 25-932): as the sequence (P08581 25-932, stated change not applied) above
Method: The binding properties (on-rate, off-rate and affinity) of c-Met monoclonal antibodies (IgG or Fab versions) with human c-Met extracellular domain was determined using surface plasmon resonance, or BLAcore, technology. For the binding studies with IgG, a low density (<1 ng/mm2) of c-Met-Fc (R&D Systems, #358-MT-100/CF) containing 5.1 biotin per c-Met molecule (prepared with Pierce #21335 as per manufacturer's instructions) was captured onto a SA chip precoated with Streptavidin (BIAcore Inc.). A streptavidin flow cell without adsorbed c-Met-Fc was used as a control cell for non-specificbinding. The antibody sample to be analyzed was prepared in HEPES buffer (0.15M NaCl, 10 mM HEPES, 3.4 mM EDTA, 0.005% surfactant P-20, pH 7.4) to form a set of solutions varied in concentration from 0.78 nM to 100 nM. The HEPES buffer used as the running solution was set at a flow rate of 50 ul/min. Each sample solution was injected over the two flow cells for three minutes, followed by 5 minutes of dissociation. The flow cells were then regenerated with 4.5M MgCl₂ for one minute to remove the bound antibody for the next cycle of binding study. The net sensorgrams (subtraction of sensorgrams from the negative control flow cell as well as that from the buffer blank) obtained for each set of samples were processed simultaneously in a global fitting using a bivalent binding model of the BIAevaluation software program equipped with the system. The on-rate (Kₐ), off-rate (Kd) and binding affinity (KD) were determined from the fitting with KD equal to kd/kₐ.

[4] = biological target: T1, c-Met/Fc Chimera (R&D Systems, catalog …); assay: competition ELISA: displacement of biotinylated HGF from plate-coated c-Met/Fc chimera, IgG, n = 2
Method: as §1, §2
(§3) C-Met antibodies 1A3.3.13 (#HB-11894, ATCC Hybridoma) and 5D5.11.6 (#HB-11895, ATCC Hybridoma) were used as positive controls. MOPC-21 (#M-7894, Sigma) was used as an IgG isotype control and HB-94 (#HB-94, ATCC Hybridoma) was converted into a Fab fragment and used as a Fab isotype control. NK4-Elastase is a kringle to kringle 4 fragment resulting from digesting intact HGF purified from S-114 cells with elastase (Date et al., FEBS Lett. 420:1-6 ([…]).

[5] = biological target: T1, c-Met/Fc Chimera (R&D Systems, catalog …); assay: europium (DELFIA) ligand competition ELISA: biotinylated HGF binding to plate-coated c-Met/Fc Chimera, Fab titrated
Method: as §1
(§4) The c-Met antibodies were diluted in reagent buffer (PBS, 0.5% BSA, 0.05% Tween-20) and titrations were performed in 96 well polypropylene plates. Biotinylated HGF (0.4 ug/ml) (R&D Systems, biotinylated with Pierce #21335 as per manufacturer's instructions) was added to each well. 50 ul of the dilutions were transferred into the Fluoronunc plates containing human c-Met-Fc fusion protein (R&D Systems, #) and the plates were incubated for two hours at room temperature. The plates were washed three times with wash buffer and blotted onto paper towels. […] Plates were read on a fluorescence plate reader and analyzed using GraphPad Prism software (GraphPad Software, San Diego, Calif.).

[6] = biological target: T1, c-Met/Fc Chimera (R&D Systems, catalog …); assay: SPR (BIAcore), c-Met-Fc captured on protein A CM5 chip, Fab as analyte, 1:1 Langmuir model
Method: For the binding study of Fab fragments derived from antibodies of the invention, a high density (>2 ng/mm²) of protein A was first immobilized covalently onto a CM5 sensorchip using EDC/NHS amine coupling chemistry [. The flow cell containing c-Met-Fc captured by the protein A was used as the positive control while a flow cell containing only protein A was used as the negative control. The Fab sample to be analyzed was as above for antibodies to form a set of solutions with concentration ranged from 3.9 nM to 500 nM. The HEPES buffer used as the running solution was set at a flow rate of 50 ul/min. For each cycle of binding study, low density (<1 ng/mm²) of c-Met-Fc was captured first onto the positive flow cell. Each sample solution was then injected over the two flow cells (one negative and one positive in series) for three minutes followed by 5 minutes of dissociation. The flow cells were then regenerated with 4.5M MgCl₂ for one minute to remove the bound c-Met-Fc/Fab complexes for the next cycle of binding. The net sensorgrams (subtraction of sensorgrams from the negative control flow cell as well as that from the buffer blank) obtained from the set of samples were fitted simultaneously in a global fitting using a Langmuir 1:1 binding model of the BIAevaluation program equipped with the system. The on-rate (Kₐ), off-rate (Kd) and binding affinity (KD) were determined from the fitting with KD equal to kd/kₐ.

[7] = biological target: T1, c-Met/Fc Chimera (R&D Systems, catalog …); assay: competition ELISA: displacement of biotinylated HGF from plate-coated c-Met/Fc chimera, Fab, n = 2
Method: as §1, §2, §3

[8] = biological target: T1, c-Met/Fc Chimera (R&D Systems, catalog …); assay: competition ELISA: displacement of biotinylated HGF from plate-coated c-Met/Fc chimera; value stands in the Fab column, n = 2
Method: as §1
as §4, with “Calif.). […]” for “Calif.).”

Row | Binder | scatter assay on DU-145 cells, mean object area, agonist (alone), 100 nM IgG; the smaller the number, the more scattering [1] | scatter assay on DU-145 cells, mean object area, antagonist (w/30 pM HGF), 100 nM IgG; the smaller the number, the more scattering [1] | IC50 (read off the curve) [2] | Kd [3] | koff [3] | kon [3] | IC50 [4] | IC50 [8] | other results
1 | B1 | 285 mean object area | 293 mean object area | ~0.7 nM | 13 nM | 0.00112 s⁻¹ | 86000 M⁻¹ s⁻¹ | 0.64 nM |  | 
2 | B2 |  |  |  |  |  |  |  |  | IC50 (read off the curve) [5]: ~3 nM; Kd [6]: 13.8 nM; koff [6]: 0.00528 s⁻¹; kon [6]: 383000 M⁻¹ s⁻¹; IC50 [7]: 24.6 nM
3 | B3 | 318 mean object area | 289 mean object area | ~3 nM | 552 nM | 0.00845 s⁻¹ | 15300 M⁻¹ s⁻¹ | 2.55 nM |  | 
4 | B4 | 459 mean object area | 372 mean object area | ~0.8 nM |  |  |  | 0.84 nM |  | 
5 | B5 |  |  |  |  |  |  |  | 900 nM and 551 nM | 
6 | B6 |  |  |  |  |  |  |  | > 125 nM | 
